In PMC8977021, “bZIP transcription factors PcYap1 and PcRsmA link oxidative stress response to secondary metabolism and development in Penicillium chrysogenum”:
Where a chain is given by its changes, count along the chain named.

T1: PcRsmA (Penicillium chrysogenum Wis54-1255 (P. rubens Wis54-1255)) (UniProt B6GZ21)
T1 sequence: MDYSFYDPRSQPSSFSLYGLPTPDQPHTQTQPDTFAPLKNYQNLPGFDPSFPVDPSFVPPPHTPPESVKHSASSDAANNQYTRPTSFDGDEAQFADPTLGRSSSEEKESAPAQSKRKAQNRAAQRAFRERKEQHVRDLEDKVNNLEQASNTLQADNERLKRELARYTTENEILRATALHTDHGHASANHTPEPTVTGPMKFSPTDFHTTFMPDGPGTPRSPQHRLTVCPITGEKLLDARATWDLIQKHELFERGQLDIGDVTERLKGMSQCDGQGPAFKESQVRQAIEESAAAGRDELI

T2: PcYap1 (Penicillium chrysogenum Wis54-1255 (P. rubens Wis54-1255)) (UniProt B6HDY4)
T2 sequence: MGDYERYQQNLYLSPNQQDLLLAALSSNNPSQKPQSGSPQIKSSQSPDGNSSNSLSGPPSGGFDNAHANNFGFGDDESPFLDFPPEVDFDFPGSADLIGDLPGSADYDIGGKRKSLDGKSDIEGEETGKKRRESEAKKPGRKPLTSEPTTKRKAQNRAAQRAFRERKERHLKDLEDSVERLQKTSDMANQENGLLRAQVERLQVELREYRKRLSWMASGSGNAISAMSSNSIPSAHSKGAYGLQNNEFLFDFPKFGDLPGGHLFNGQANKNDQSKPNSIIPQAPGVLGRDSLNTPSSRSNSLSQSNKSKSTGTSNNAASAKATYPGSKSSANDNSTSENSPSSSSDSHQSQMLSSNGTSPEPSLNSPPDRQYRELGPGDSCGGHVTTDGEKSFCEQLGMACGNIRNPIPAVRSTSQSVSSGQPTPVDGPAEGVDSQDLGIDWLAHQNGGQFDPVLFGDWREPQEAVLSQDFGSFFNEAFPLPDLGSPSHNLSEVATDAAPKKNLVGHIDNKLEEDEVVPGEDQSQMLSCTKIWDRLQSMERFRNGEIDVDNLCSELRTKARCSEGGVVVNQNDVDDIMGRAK

T3: PcYap1 (Penicillium chrysogenum Wis54-1255 (P. …, UniProt B6HDY4 1-582))
T3 sequence: T2 sequence

T4: PcRsmA (Penicillium chrysogenum Wis54-1255 (P. …, UniProt B6GZ21 1-299))
T4 sequence: T1 sequence

B1: penDE-CRE123 (dsDNA)
DNA 1: AGGTCCTGCATTAGCGTACGCCCCAGGTTTAGATCAAAGTTACGTAATTTATATGTA
DNA 2: TACATATAAATTACGTAACTTTGATCTAAACCTGGGGCGTACGCTAATGCAGGACCT
B2: penDE-CRE123-M1 (dsDNA)
DNA 1: B1 DNA 1 with T40C, T45A
DNA 2: B1 DNA 2 with A13T, A18G
B3: RsmA-2A (dsDNA)
DNA 1: CAGTAAGCATCTGGGCTGCAAGCGTATA
DNA 2: TATACGCTTGCAGCCCAGATGCTTACTG
B4: RsmA-2 (dsDNA)
DNA 1: CAGTAAGCATCTGGGCTGCAAGCGTATAATGTCTCCAGGTTGTCTCAGCATAAACA
DNA 2: TGTTTATGCTGAGACAACCTGGAGACATTATACGCTTGCAGCCCAGATGCTTACTG
B5: RsmA-2C (dsDNA)
DNA 1: CTCCAGGTTGTCTCAGCATAAACA
DNA 2: TGTTTATGCTGAGACAACCTGGAG
B6: AflR-RsmA (dsDNA)
DNA 1: CGACTGACACAAGAAATAACAATTC
DNA 2: GAATTGTTATTTCTTGTGTCAGTCG
B7: PTA1-WT (dsDNA)
DNA 1: GCCAGTGTAAAATTAGTAACCGTATCTC
DNA 2: GAGATACGGTTACTAATTTTACACTGGC
B8: AP1-brlA (dsDNA)
DNA 1: AAAACAATACAATTTACTAAAGTCCACTGGGCA
DNA 2: TGCCCAGTGGACTTTAGTAAATTGTATTGTTTT
B9: AP1-brlA-Mut (dsDNA)
DNA 1: B8 DNA 1 with T15G, A20G
DNA 2: B8 DNA 2 with T14C, A19C
B10: RsmA-2B (dsDNA)
DNA 1: CAGTAAGCATCTGGGCTGCAAGCGTATAATGTCTCCAG
DNA 2: CTGGAGACATTATACGCTTGCAGCCCAGATGCTTACTG
B11: PTA1-M1 (dsDNA)
DNA 1: GCCAGTGTAAAACTAGTCACCGTATCTC
DNA 2: GAGATACGGTGACTAGTTTTACACTGGC

Columns and labels:
[1] = target: T1, PcRsmA (Penicillium chrysogenum Wis54-1255 (P. rubens Wis54-1255)); assay: EMSA; conditions: LightShift binding buffer 1X, about 10% glycerol, 5 mM MgCl2, 20 fmol biotin probe, 10 ug protein, 20 uL, room temperature 20 min; 5% native PAGE in 0.5X TBE …
[2] = target: T2, PcYap1 (Penicillium chrysogenum Wis54-1255 (P. rubens Wis54-1255)); assay: EMSA; conditions: LightShift binding buffer 1X, about 10% glycerol, 5 mM MgCl2, 20 fmol biotin probe, 10 ug protein, 20 uL, room temperature 20 min; 5% native PAGE in 0.5X TBE …
PcYap1 = target: T3, PcYap1; assay: EMSA; LightShift binding buffer 1X, about 10% glycerol, 5 mM MgCl2, 20 fmol biotin probe, 10 ug protein, 20 uL, room temperature 20 min; 5% native PAGE in 0.5X TBE; pH and salt not given; conditions: protein: recombinant; tags: C-terminal c-myc-6xHis; chain copies: 2; label: 3' biotin; blunt
PcRsmA = target: T4, PcRsmA; assay: as above; conditions: protein: recombinant; tags: C-terminal c-myc-6xHis; chain copies: 2; label: 3' biotin; blunt

Molecule | binding [1] | binding [2] | binding result (PcYap1) | binding result (PcRsmA)
AACATCGCCGTCGTTGAGTGCACGTTGCCTACTCTCTCGTGGCTTGGCTGGGCCCACGAGCCCGATTGACTCGACGGTGTTACTTGGGTATCTATGGCCCCGTTTTCTGGCACGGTAATGATAAGTACTTACTAGTCTTCGAGCGGGGGAGTGTTGCTCTGCCCGAGCATCAACGATTGGCCTGA (double strand) [probe 4] | no binding | no binding |  | 
CCGAGCATCAACGATTGGCCTGATCGCACCGTCTGCAAATGCCACGGTGCGGACCGACTGAAATCTCAGACCACCAAAGACCCTCCGACTTCGAGATACGG (double strand) [dwPta1] | no binding |  |  | 
TGTTTATGCTGAGACAACCTGGAGACATTATACGCTTGCAGCCCAGATGCTTACTGGATGGGGCCGCTGGAGCCAGTGTAAAATTAGTAACCGTATCTCGAAGTCGGAGGGTCTTTGGTGGTCTGAGATTTCAGTCGGTCCGCACCGTGGCATTTGCAGACGGTGCGATCAGGCCAATCGTTGATGCTCGG (double strand) [probe 5] | binds | binds |  | 
B1 |  |  | no binding | binds
B2 |  |  |  | no binding
B3 |  |  |  | no binding
B4 |  |  |  | binds
B5 |  |  |  | binds
B6 |  |  |  | binds
B7 |  |  | binds | no binding
B8 |  |  | binds | no binding
B9 |  |  | no binding | no binding
B10 |  |  |  | no binding
B11 |  |  | no binding | no binding
